Assay results reported in patent publication US20110038941A1.

Target: CD20 cell surface antigen (human) (UniProt P11836)
Experiment: flow cytometry of FAM-ODN fluorescence on Raji cells

Chain of UniProt P11836 (P11836 whole entry): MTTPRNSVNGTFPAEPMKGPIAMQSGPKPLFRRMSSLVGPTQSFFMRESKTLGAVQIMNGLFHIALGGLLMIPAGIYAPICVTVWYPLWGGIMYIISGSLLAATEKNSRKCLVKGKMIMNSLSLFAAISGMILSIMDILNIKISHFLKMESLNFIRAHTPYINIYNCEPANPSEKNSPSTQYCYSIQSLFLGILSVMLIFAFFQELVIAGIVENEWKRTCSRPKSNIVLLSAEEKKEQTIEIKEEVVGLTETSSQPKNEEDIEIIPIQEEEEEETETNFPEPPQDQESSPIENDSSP

- fold fluorescence intensity of FAM-ODN against FAM-ODN loaded LP and Her ILP: 10 fold
- fold fluorescence intensity of FAM-ODN against free FAM-ODN: 20 fold
Substance: Rituximab (anti-CD20 antibody) conjugated cationic immunoliposomes
